One data set has as its target T1, IL-11Rα D1-D3 (human, UniProt Q14626 23-319).
T1 construct: interleukin 11 receptor subunit alpha, human, C-terminally truncated form with the structured extracellular domains D1-D3; Secreted with a honeybee-melittin signal peptide; tag removed with TEV protease; N-glycosylated; also called IL11RA; RA; not shown: His8, N-terminal, cleaved
T1 sequence: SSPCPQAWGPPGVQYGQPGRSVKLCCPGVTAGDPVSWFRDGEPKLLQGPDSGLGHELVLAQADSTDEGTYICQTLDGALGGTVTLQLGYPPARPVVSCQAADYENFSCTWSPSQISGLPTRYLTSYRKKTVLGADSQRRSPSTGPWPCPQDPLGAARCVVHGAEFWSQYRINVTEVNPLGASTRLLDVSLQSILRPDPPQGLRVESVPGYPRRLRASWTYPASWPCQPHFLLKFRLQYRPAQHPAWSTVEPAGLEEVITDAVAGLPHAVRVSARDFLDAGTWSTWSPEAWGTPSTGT
Put plainly: SPR; biotinylated IL-11Δ10-avi or IL-11Δ10/Mutein-avi immobilised on a streptavidin chip (SAHC 1500M); IL-11Rα D1-D3 flowed over, nine-point two-fold dilution series from 500 nM; Biacore T200, 25 °C, TBS pH 8.5 + 0.05% Tween, 30 uL/min; 1:1 kinetic model; two replicate dilution series (run 1, run 2). The settings on record: both partners purified. A general note: Surface plasmon resonance follows binding to a sensor surface in real time, without labels.

Data set [1] deals with the molecule itself. Put plainly: cell-based or functional assay.
In data set [2] the target is T2, IL-11Rα_(D1-D3) (human, UniProt Q14626 23-319, N-linked glycans (N105, N172 seen in the structures)).
T2 construct: Secreted with a honeybee-melittin signal peptide; also called C-terminally truncated form of IL-11Rα; not shown: His8, N-terminal, cleaved
T2 sequence: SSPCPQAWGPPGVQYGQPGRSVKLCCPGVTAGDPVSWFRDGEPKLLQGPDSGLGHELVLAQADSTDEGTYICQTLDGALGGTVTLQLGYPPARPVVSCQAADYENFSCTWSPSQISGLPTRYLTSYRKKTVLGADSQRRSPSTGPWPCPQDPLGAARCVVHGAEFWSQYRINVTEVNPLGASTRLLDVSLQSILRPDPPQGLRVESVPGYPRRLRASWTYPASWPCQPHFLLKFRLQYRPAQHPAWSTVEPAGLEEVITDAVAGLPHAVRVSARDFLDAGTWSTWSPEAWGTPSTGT
The experiment in a line: SPR; Biacore T200, 25 °C, TBS pH 8.5 + 0.05% Tween, 30 μL/min; biotinylated IL-11-avi on a streptavidin chip, IL-11Rα_(D1-D3) flowed over (two-fold dilutions from 500 nM), 1:1 kinetic model, n = 2. To be noted: both partners purified.

The target in data set [3] is T3, IL-11RαD1-D3 (C-terminally truncated form of human IL-11Rα, structured extracellular domains D1-D3) (human, UniProt Q14626 23-319).
T3 construct: interleukin 11 receptor subunit alpha, human, domains D1-D3 (C-terminally truncated extracellular region); Expressed with a honeybee-melittin signal peptide; not shown: His8, N-terminal, cleaved
T3 sequence: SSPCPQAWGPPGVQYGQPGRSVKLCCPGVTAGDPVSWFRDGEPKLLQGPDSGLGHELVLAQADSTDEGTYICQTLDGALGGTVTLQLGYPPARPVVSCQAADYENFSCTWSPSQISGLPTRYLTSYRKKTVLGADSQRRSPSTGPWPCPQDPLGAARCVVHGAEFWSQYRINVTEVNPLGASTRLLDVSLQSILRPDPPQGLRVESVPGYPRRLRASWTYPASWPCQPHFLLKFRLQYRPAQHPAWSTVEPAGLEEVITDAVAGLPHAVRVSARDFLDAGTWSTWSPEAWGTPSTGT
Put plainly: SPR; Biacore T200; biotinylated IL-11-avi constructs immobilised on a streptavidin chip; IL-11RαD1-D3 injected, two-fold dilutions from 500 nM; 25 °C (298 K); TBS pH 8.5 + 0.05% Tween; 30 μL/min; 1:1 kinetic model; n = 2. To be noted: both partners purified.

The target in data set [4] is T2, IL-11Rα_(D1-D3). Put plainly: ITC; cytokine in the syringe (10-fold above IL-11Rα), IL-11Rα_(D1-D3) in the cell at 10 μM, TBS pH 8.5, 1:1 interaction model, n = 3. To be noted: both partners purified. Background: In ITC the heat of successive injections is recorded.
The target in data set [5] is T2, IL-11Rα_(D1-D3). The experiment in a line: cell-based or functional assay.

“And” between values parts separate entries of the source, which are not always exact repeats. Equal entries are not always repeated.

B1: biotinylated IL-11Δ10-avi (ligand, human)
chain: SPDPRAELDSTVLLTRSLLADTRQLAAQLRDKFPADGDHNLDSLPTLAMSAGALGALQLPGVLTRLRADLLSYLRHVQWLRRAGGSSLKTLEPELGTLQARLDRLLRRLQLLMSRLALPQPPPDPPAPPLAPPSSAWGGIRAAHAILGGLHLTLDWAVRGLLLLKTRL
modifications: biotin on the C-terminal avitag
notes: interleukin 11, human, N-terminally truncated form IL-11Δ10; numbers count on: the mature protein; also called IL11d10; not shown: His6, N-terminal, cleaved; avitag, C-terminal, kept
What is called Kd is the free concentration of one partner at which half of the binding sites on the other are occupied at equilibrium, for simple one-to-one binding. One may read the koff as the rate constant with which the complex falls apart. The term kon denotes a measure of how fast the partners come together. Regarding B1, in the data set with IL-11Rα D1-D3, the Kd was 78.5 nM and 77.1 nM and 77.8 nM; the koff was 0.0943 s⁻¹ and 0.125 s⁻¹; the kon is 1.2e+06 M⁻¹ s⁻¹ and 1.61e+06 M⁻¹ s⁻¹ and 1.41e+06 M⁻¹ s⁻¹.

B2: IL-11_(Δ10/W147A)/IL-11Rα_(D1-D3)/gp130_(D1-D3) trimer (complex, human)
chain 1: SPDPRAELDSTVLLTRSLLADTRQLAAQLRDKFPADGDHNLDSLPTLAMSAGALGALQLPGVLTRLRADLLSYLRHVQWLRRAGGSSLKTLEPELGTLQARLDRLLRRLQLLMSRLALPQPPPDPPAPPLAPPSSAAGGIRAAHAILGGLHLTLDWAVRGLLLLKTRL
chain 2: SSPCPQAWGPPGVQYGQPGRSVKLCCPGVTAGDPVSWFRDGEPKLLQGPDSGLGHELVLAQADSTDEGTYICQTLDGALGGTVTLQLGYPPARPVVSCQAADYENFSCTWSPSQISGLPTRYLTSYRKKTVLGADSQRRSPSTGPWPCPQDPLGAARCVVHGAEFWSQYRINVTEVNPLGASTRLLDVSLQSILRPDPPQGLRVESVPGYPRRLRASWTYPASWPCQPHFLLKFRLQYRPAQHPAWSTVEPAGLEEVITDAVAGLPHAVRVSARDFLDAGTWSTWSPEAWGTPSTGT
chain 3: GELLDPCGYISPESPVVQLHSNFTAVCVLKEKCMDYFHVNANYIVWKTNHFTIPKEQYTIINRTASSVTFTDIASLNIQLTCNILTFGQLEQNVYGITIISGLPPEKPKNLSCIVNEGKKMRCEWDGGRETHLETNFTLKSEWATHKFADCKAKRDTPTSCTVDYSTVYFVNIEVWVEAENALGKVTSDHINFDPVYKVKPNPPHNLSVINSEELSSILKLTWTNPSIKSVIILKYNIQYRTKDASTWSQIPPEDTASTRSSFTVQDLKPFTEYVFRIRCMKEDGKGYWSDWSEEASGITYEDR
On to B2, for which the “EC50 of STAT3 activation (pSTAT3, flow cytometry) by IL-11_(Δ10/W147A) in Ba/F3 cells stably expressing human gp130 and IL-11Rα” value in data set [1] amounted to 610 pM.

B3: biotinylated IL-11_(Δ10/Mutein)-avi (ligand, human)
chain: SPDPRAELDSTVLLTRSLLADTRQLAAQLRDKFPADGDHNLDSLPTLPAIDYALGALQLPGVLTRLRADLLSYLRHVQWLRRAGGSSLKTLEPELGTLQARLDRLLRRLQLLMSRLALPQPPPDPPAPPLAPPSSAAGGIRAAHAILGGLHLTLDWAVRGLLLLKTRL
modifications: biotin on the C-terminal avitag
notes: interleukin 11 (IL-11), human, IL-11Δ10 with W147A and 58-62 AMSAG changed to PAIDY; numbers count on: the mature protein; source: E. coli BL21(DE3), biotinylated, purified as IL-11Δ10; not shown: His6, N-terminal, cleaved; avitag, C-terminal, kept
For B3, the koff in the data set with IL-11Rα_(D1-D3) [2] turned out to be 0.034 s⁻¹.

B4: biotinylated IL-11Δ10/Mutein-avi (ligand, human)
chain: SPDPRAELDSTVLLTRSLLADTRQLAAQLRDKFPADGDHNLDSLPTLPAIDYALGALQLPGVLTRLRADLLSYLRHVQWLRRAGGSSLKTLEPELGTLQARLDRLLRRLQLLMSRLALPQPPPDPPAPPLAPPSSAAGGIRAAHAILGGLHLTLDWAVRGLLLLKTRL
modifications: biotin on the C-terminal avitag
notes: interleukin 11, human, Δ10 with W147A and 58PAIDY62, as Dm7; numbers count on: the mature protein; also called IL11Δ10/Mutein - Avitag; source: E. coli BL21(DE3), biotinylated in the cells, purified as IL-11Δ10; not shown: avitag, C-terminal, kept; His6, N-terminal, cleaved
In the case of B4, in data set [3], the Kd is 33 nM and the kon worked out at 1e+06 M⁻¹ s⁻¹.

B5: biotinylated IL-11Δ10/Mutein-avi (ligand, human)
chain: SPDPRAELDSTVLLTRSLLADTRQLAAQLRDKFPADGDHNLDSLPTLPAIDYALGALQLPGVLTRLRADLLSYLRHVQWLRRAGGSSLKTLEPELGTLQARLDRLLRRLQLLMSRLALPQPPPDPPAPPLAPPSSAAGGIRAAHAILGGLHLTLDWAVRGLLLLKTRL
modifications: biotin on the C-terminal avitag
notes: interleukin 11, human, N-terminally truncated form IL-11Δ10 with the Mutein changes; numbers count on: the mature protein; not shown: His6, N-terminal, cleaved; avitag, C-terminal, kept
Regarding B5, in the data set with IL-11Rα D1-D3, the Kd is 35.8 nM and 30.8 nM and 33.3 nM; the koff is 0.035 s⁻¹ and 0.0335 s⁻¹; the kon is 937000 M⁻¹ s⁻¹ and 1.14e+06 M⁻¹ s⁻¹ and 1.04e+06 M⁻¹ s⁻¹.

B6: IL-11_(Δ10/Mutein) (ligand, human)
chain: SPDPRAELDSTVLLTRSLLADTRQLAAQLRDKFPADGDHNLDSLPTLPAIDYALGALQLPGVLTRLRADLLSYLRHVQWLRRAGGSSLKTLEPELGTLQARLDRLLRRLQLLMSRLALPQPPPDPPAPPLAPPSSAAGGIRAAHAILGGLHLTLDWAVRGLLLLKTRL
notes: interleukin 11 (IL-11), human, IL-11Δ10 with W147A and AB loop residues 58-62 AMSAG changed to PAIDY; numbers count on: the mature protein; Parent construct IL-11Δ10; also called IL-11 Mutein; not shown: His6, N-terminal, cleaved
Molecule B6 registered a Kd with IL-11Rα_(D1-D3) [4] of 38 nM. Also, the “IC50 of inhibition of IL-11Δ10 (20 ng/mL) mediated STAT3 activation (pSTAT3, flow cytometry) in Ba/F3 cells stably expressing human gp130 and IL-11Rα; competes with IL-11 for IL-11Rα and gp130” value with IL-11Rα_(D1-D3) [5] came out at 850 nM.
